# Assay results as given in patent US12042530B2, “Target peptides for immunotherapy and diagnostics” (University of Virginia Patent Foundation, priority 2012, dated 2024).
# Non-standard residues stand in square brackets, D forms with d. No end group written: not given here. pT = C[C@@H](OP(=O)(O)O)[C@H](N)C(=O)O; pS = N[C@@H](COP(=O)(O)O)C(=O)O
# What was measured:
# [1] = target: T1, HLA-A*0201 (HLA-A2) peptide complexes (Homo sapiens, UniProt P04439, D140Y/D185E/D98H/E176V/E277Q/G131W/G231S/I119V/I121R/I166T/I218V/L300P/L318F/N151K/N90K/P208A/P217A/Q86G/Q94H/R138H/R169H/T345S); assay: HLA-A*0201 phosphopeptides associated with leukemia samples (isolation of HLA-associated peptides); details: for Copies/cell class, JY: EBV transformed B lymphoblastoid cell line JY; for Copies/cell class, AML1: acute myeloid leukemia sample AML1; for Copies/cell class, CLL1: chronic lymphocytic leukemia sample CLL1; for Copies/cell class, B Cell: healthy B cells; for Copies/cell class, T Cell: healthy T cells; for Copies/cell class, MCL: mantle cell lymphoma sample
# T1 construct: endogenous in cells; host or cells: JY B-lymphoblastoid line; primary CLL, MCL, AML, ALL samples; healthy splenic T and B cells
# Source text: To identify naturally processed tumor-associated phosphopeptides, HLA-A*0201 (HLA-A2) and HLA-B*0702 (HLA-B7) peptide complexes from four (4) chronic lymphocytic leukemia (CLL) tumor samples, a mantle cell lymphoma sample (MCL), one acute lymphoblastic leukemia (ALL), and an acute myeloid leukemia (AML) sample, in addition to healthy splenic T and B-cells and the cultured lymphoblastoid cell line JY were isolated. These efforts yielded 10 HLA-A2-restricted and 86 HLA-B7-restricted phosphopeptide antigens (see Tables 6 and 7).
# All cell lines were grown at 37° C. with 5% CO2 in growth medium consisting of RPMI 1640 supplemented with 10% FCS and two mM L-glutamine. Blood or leukapheresis samples were taken from patients with high-burden leukemia in heparin. Tumor cells were recovered by layering the blood over density gradient (Ficoll) and collecting the tumor layer following centrifugation. The tumor was washed in tris-buffered saline (TBS). The purity of the tumor was assessed using flow cytometry and was >98% pure in all cases. For healthy T and B-cell populations, a normal spleen sample processed and tonsil sample was collected and lymphocytes released through mechanical disruption. Mononuclear cells were isolated using a density gradient and 10^9 T cells isolated using anti-CD19 or anti-CD3 microbeads (Miltenyi Biotec Inc., Auburn, California, United States of America) with purity >98% were obtained. Bone marrow sample was obtained from an elective orthopedic procedure and red cell-depleted using hypotonic lysis. This sample was not processed further.
# Class I MHC molecules were immunoaffinity purified from the JY cell line or from primary tumor samples, and their associated peptides were extracted as previously described in Zarling et al., 2006. Approximately 1.2-14×10^9 cells were lysed in a solution containing 20 mM Tris-HCl (pH 8.0), 150 mM NaCl, 1% CHAPS, one mM PMSF, five μg/mL aprotinin, 10 μg/mL leupeptin, 10 μg/mL pepstatin A, 1 μg/ml calyculin A, and phosphatase inhibitor (cocktails I and II; Sigma-Aldrich). The mixture was subjected to centrifugation and the resulting supernatant was passed over protein A sepharose pre-loaded with the HLA-A2-specific antibody BB7.2 or HLA-B7-specific antibody MEL Peptides were eluted from the purified class I MHC molecules with 10% acetic acid.
# PBMCs = assay: Memory T cell response, IFNγ ELISpot, healthy A2 positive donors; format: cell-based, human; details: for Day 7 ELISpot, donor alpha: healthy A2 positive donor alpha; for Day 7 ELISpot, donor one: healthy A2 positive donor one; for Day 7 ELISpot, donor beta: healthy A2 positive donor beta
# HLA A*0201 = HLA A*0201 (Homo sapiens, UniProt P04439, D140Y/D185E/D98H/E176V/E277Q/G131W/G231S/I119V/I121R/I166T/I218V/L300P/L318F/N151K/N90K/P208A/P217A/Q86G/Q94H/R138H/R169H/T345S); assay: Binding to HLA A*0201 (statement)
Substance,"Copies/cell class, CLL2 [1]","Copies/cell class, CLL3 [1]","Copies/cell class, CLL4 [1]","Copies/cell class, JY [1]","Copies/cell class, AML1 [1]","Copies/cell class, CLL1 [1]","Copies/cell class, B Cell [1]","Copies/cell class, T Cell [1]","Copies/cell class, MCL [1]","Day 7 ELISpot, donor alpha (PBMCs)","Day 7 ELISpot, donor one (PBMCs)","Day 7 ELISpot, donor three (PBMCs; healthy A2 positive donor three)","Day 7 ELISpot, donor beta (PBMCs)","Memory T cell response, in words (PBMCs; healthy donors / patient)",Binding to HLA A*0201 (HLA A*0201),"Day 7 ELISpot, donor two (PBMCs; healthy A2 positive donor two)"
451 (RQASIELPSM; SITE (1)..(10): One or more of the listed amino acids can be phosphorylated as set forth in the Tables; listed as Homo sapiens) [compound 451],2 (2 indicates 1-5 copies/cell),1 (1 indicates <1 copy/cell),1 (1 indicates <1 copy/cell),4 (4 indicates >25 copies per cell),1 (1 indicates <1 copy/cell),2 (2 indicates 1-5 copies/cell),2 (2 indicates 1-5 copies/cell),2 (2 indicates 1-5 copies/cell),1 (1 indicates <1 copy/cell),–,–,–,–,–,–,–
"TPRVTGGGAM (Artificially synthesized cytomegalovirus peptide) [TPR (CMV), cytomegalovirus (CMV) peptide, reference compound]",–,–,–,–,–,–,–,–,–,+++ (>100 spots),+ (3-24 spots),–,–,–,–,–
RTFpSPTYGL (RTF[pS]PTYGL; listed as Homo sapiens) [SEQ ID NO: 457],–,–,–,–,–,–,–,–,–,–,+ (3-24 spots),+ (3-24 spots),–,–,–,–
456 (RQLSSGVSEI; SITE (1)..(10): One or more of the listed amino acids can be phosphorylated as set forth in the Tables; listed as Homo sapiens) [compound 456],0,1 (1 indicates <1 copy/cell),0,0,0,0,0,0,0,–,–,–,–,–,–,–
436 (KAKSPAPGL; SITE (1)..(9): One or more of the listed amino acids can be phosphorylated as set forth in the Tables; listed as Homo sapiens) [compound 436],1 (1 indicates <1 copy/cell),0,0,0,0,0,0,0,0,–,–,–,–,–,–,–
APRRYsSSL (APRRY[pS]SSL; listed as Homo sapiens) [SEQ ID NO: 267],–,–,–,–,–,–,–,–,–,++ (25-99 spots),–,–,+ (3-24 spots),Two healthy donors (HD) responded,does not bind to A*0201,–
457 (RTFSPTYGL; SITE (1)..(9): One or more of the listed amino acids can be phosphorylated as set forth in the Tables; listed as Homo sapiens) [compound 457],0,1 (1 indicates <1 copy/cell),0,0,0,0,0,0,0,–,–,–,–,–,–,–
VMIGpSPKKV (VMIG[pS]PKKV; listed as Homo sapiens) [SEQ ID NO: 426],–,–,–,–,–,–,–,–,–,++ (25-99 spots),++ (25-99 spots),–,+ (3-24 spots),–,–,++ (25-99 spots)
459 (RVASPTSGV; SITE (1)..(109: One or more of the listed amino acids can be phosphorylated as set forth in the Tables; listed as Homo sapiens) [compound 459],1 (1 indicates <1 copy/cell),0,0,0,0,1 (1 indicates <1 copy/cell),0,0,1 (1 indicates <1 copy/cell),–,–,–,–,–,–,–
440 (KLIDRTESL; SITE (1)..(9): One or more of the listed amino acids can be phosphorylated as set forth in the Tables; listed as Homo sapiens) [compound 440],2 (2 indicates 1-5 copies/cell),1 (1 indicates <1 copy/cell),1 (1 indicates <1 copy/cell),2 (2 indicates 1-5 copies/cell),0,2 (2 indicates 1-5 copies/cell),0,0,0,–,–,–,–,–,–,–
460 (SMTRSPPRV; SITE (1)..(9): One or more of the listed amino acids can be phosphorylated as set forth in the Tables; listed as Homo sapiens) [compound 460],0,1 (1 indicates <1 copy/cell),0,0,0,0,0,0,0,–,–,–,–,–,–,–
464 (VMIGSPKKV; SITE (1)..(9): One or more of the listed amino acids can be phosphorylated as set forth in the Tables; listed as Homo sapiens) [compound 464],0,0,0,0,0,0,0,0,1 (1 indicates <1 copy/cell),–,–,–,–,–,–,–
IMDRtPEKL (IMDR[pT]PEKL; listed as Homo sapiens) [SEQ ID NO: 398],–,–,–,–,–,–,–,–,–,+++ (>100 spots),+ (3-24 spots),–,–,–,–,–
444 (KMDSFLDMQL; SITE (1)..(10): One or more of the listed amino acids can be phosphorylated as set forth in the Tables; listed as Homo sapiens) [compound 444],0,0,1 (1 indicates <1 copy/cell),2 (2 indicates 1-5 copies/cell),0,0,0,0,0,–,–,–,–,–,–,–
